Our source for the Pearson's correlation coefficient (PCC) of co-localisation of TMR-microtubule and AF-tubulin fluorescence in CLSM images, 100 uM peptide, doublet method (no peptide: 0.07) values is PMC11951922.

The assay concerns the target AF-tubulin (porcine) (UniProt P02550).
Chain of UniProt P02550 (P02550 whole entry, chain 1 of 2): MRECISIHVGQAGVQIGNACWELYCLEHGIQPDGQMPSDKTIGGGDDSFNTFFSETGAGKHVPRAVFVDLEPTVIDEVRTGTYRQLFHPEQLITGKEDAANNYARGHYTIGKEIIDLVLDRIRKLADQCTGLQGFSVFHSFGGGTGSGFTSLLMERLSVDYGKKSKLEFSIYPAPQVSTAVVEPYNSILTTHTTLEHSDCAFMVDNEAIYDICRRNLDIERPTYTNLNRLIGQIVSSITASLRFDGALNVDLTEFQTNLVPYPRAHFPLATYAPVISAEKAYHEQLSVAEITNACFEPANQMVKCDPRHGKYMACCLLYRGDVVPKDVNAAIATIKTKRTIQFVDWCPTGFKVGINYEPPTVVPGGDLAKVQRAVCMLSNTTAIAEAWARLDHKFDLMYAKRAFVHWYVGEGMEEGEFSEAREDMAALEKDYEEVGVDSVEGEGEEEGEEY
Chain of UniProt P02550 (Q767L7 whole entry, chain 2 of 2, further chain): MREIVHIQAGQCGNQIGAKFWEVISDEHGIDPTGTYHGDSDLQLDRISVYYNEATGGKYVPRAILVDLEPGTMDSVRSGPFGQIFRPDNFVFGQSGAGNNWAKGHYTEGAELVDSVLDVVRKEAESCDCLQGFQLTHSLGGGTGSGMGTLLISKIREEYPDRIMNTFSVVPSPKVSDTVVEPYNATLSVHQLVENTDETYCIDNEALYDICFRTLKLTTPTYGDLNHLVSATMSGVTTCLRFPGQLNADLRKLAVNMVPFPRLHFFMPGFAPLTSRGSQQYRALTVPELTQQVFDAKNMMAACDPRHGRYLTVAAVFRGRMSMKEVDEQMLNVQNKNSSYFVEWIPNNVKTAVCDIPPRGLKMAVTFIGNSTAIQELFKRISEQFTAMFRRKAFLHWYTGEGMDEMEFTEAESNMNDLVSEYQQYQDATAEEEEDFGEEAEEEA
For the molecule KAKAKAKAKAKAKAEAAAKEAAAKGGGKKHVPGGGSVQIVYKPVDL [KA7–(EAAAK)2–TP], the Pearson's correlation coefficient (PCC) of co-localisation of TMR-microtubule and AF-tubulin fluorescence in CLSM images, 100 uM peptide, doublet method (no peptide: 0.07) turned out to be 0.72.
KAKAKAKAKAKAKAGGGSGGGSGGGSGGGKKHVPGGGSVQIVYKPVDL [KA7–(GGGS)3–TP] displayed a Pearson's correlation coefficient (PCC) of co-localisation of TMR-microtubule and AF-tubulin fluorescence in CLSM images, 100 uM peptide, doublet method (no peptide: 0.07) of 0.7.
In the case of KAKAKAKAKAKAKAGGGSGGGKKHVPGGGSVQIVYKPVDL [KA7–GGGS–TP], the Pearson's correlation coefficient (PCC) of co-localisation of TMR-microtubule and AF-tubulin fluorescence in CLSM images, 100 uM peptide, doublet method (no peptide: 0.07) was 0.61.
